For orientation: stoichiometry N means the number of molecules, sites or subunits per partner or assembly.

Here are results for one substance from PMC12677461.

The assay concerns the target Gαo, alpha subunit of the heterotrimeric G protein Go (native, mouse brain) (mouse (endogenous in BALB/c mouse brain)) (UniProt P18872). Kind of assay: co-IP; mouse brain lysate (2 mg/ml in IP buffer: 50 mM HEPES pH 7.4, 100 mM NaCl, 1 mM EDTA, 3 mM EGTA, 10 mM MgCl2, 1% Triton X-100) with 100 µM GDP, 4 °C, 2 h; Gαo precipitated with anti-Gαo sc-13532 cross-linked to protein A/G agarose; read by protein stain and western blot.
Sequence of UniProt P18872 (P18872 whole entry, one chain of several): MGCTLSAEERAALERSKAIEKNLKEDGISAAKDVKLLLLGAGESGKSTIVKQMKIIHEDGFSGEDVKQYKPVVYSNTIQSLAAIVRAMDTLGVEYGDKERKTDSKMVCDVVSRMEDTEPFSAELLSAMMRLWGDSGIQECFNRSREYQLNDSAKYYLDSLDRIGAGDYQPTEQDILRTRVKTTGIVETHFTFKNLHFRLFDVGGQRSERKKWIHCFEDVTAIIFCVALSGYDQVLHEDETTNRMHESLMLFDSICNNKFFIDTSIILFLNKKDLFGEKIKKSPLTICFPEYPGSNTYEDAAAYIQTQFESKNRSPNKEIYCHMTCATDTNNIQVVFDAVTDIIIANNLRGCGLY

The substance “Gβγ (G protein β and γ subunits, native, mouse brain) (from UniProt P62874 1-340; P63213 1-71) (complex)” came in with a stoichiometry N of 1.
